According to patent publication US20060275312A1:

Legend:
[1] = molecular target: human IgE from serum of a representative allergic subject with high IgE reactivity to house dust mite allergens (human); test: competitive inhibition ELISA, human serum IgE, GST-Blo t5 on plate, inhibitor at 10 µg/ml
[2] = molecular target: human IgE from serum of a representative allergic subject with high IgE reactivity to house dust mite allergens (human); test: competitive inhibition ELISA, human serum IgE, GST-Blo t5 on plate

Row | inhibition of IgE binding to GST-Bt5 [1] [%] | maximum inhibition of IgE binding to GST-Blo t5 [2] [%] | Binder
1 | 100 | – | Blo t 5 (recombinant major house dust mite allergen from Blomia tropicalis) (protein) QEHKPKKDDFRNEFDHLLIEQANHAIEKGEHQLLYLQHQLDELNENKSKELQEKIIRELDVVCAMIEGAQGALERELKRTDLNILERFNYEEAQTLSKILLKDLKETEQKVKDIQTQ
2 | – | 70 | Blo t 5-Fve (two-in-one chimeric wild type) fusion protein (protein) QEHKPKKDDFRNEFDHLLIEQANHAIEKGEHQLLYLQHQLDELNENKSKELQEKIIRELDVVCAMIEGAQGALERELKRTDLNILERFNYEEAQTLSKILLKDLKETEQKVKDIQTQSATSLTFQLAYLVKKIDFDYTPNWGRGTPSSYIDNLTFPKVLTDKKYSYRVVVNGSDLGVESNFAVTPSGGQTINFLQYNKGYGVADTKTIQVFVVIPDTGNSEEYIIAEWKKT
